Source: patent US20080015165A1, “NOVEL POLYPEPTIDE” (KYOWA HAKKO KOGYO CO., LTD., priority 1998, published 2008)

B1: Mouse Fuc-TIV: known mouse α1,3-fucosyltransferase expressed from pCDM8-mFT4 for comparison (protein, UniProt Q11127 1-433, looked up)
Alpha-(1,3)-fucosyltransferase …: MAPARQELQHESRCRPSRTVDAWRAAVATRGRHMETPGYRRRTRCGGWGLPRSVSSLAAVGLLCTALTTFICWGQLPPLPWASPAPQRLVGVLLWWEPFRGRGGYPKSPPDCSLRFNISGCRLLTDRAAYGEAQAVLFHHRDLVKELHDWPPPWGARERTDKALVLRVFDDQEGAVTLTGKALETVGSRPPGQRWVWMNFESPSHTPGLRGLAKDLFNWTLSYRTDSDVFVPYGFLYSRSDPTEQPSGLGPQLARKRGLVAWVVSNWNEHQARVRYYHQLSRHVSVDVFGRTGPGRPVPAIGLLHTVARYKFYLAFENSRHVDYITEKLWRNAFLAGAVPVVLGPDRANYERFVPRGAFIHVDDFPNAASLAAYLLFLDRNVAVYRRYFRWRRSFAVHITSFWDEQWCRTCQAVQTSGDQPKSIHNLADWFQR
B2: Fuc-TV: known human α1,3-fucosyltransferase, previously cloned, expressed in Namalwa cells (protein, UniProt Q11128 1-374, looked up)
4-galactosyl-N-acetylglucosami …: MDPLGPAKPQWLWRRCLAGLLFQLLVAVCFFSYLRVSRDDATGSPRPGLMAVEPVTGAPNGSRCQDSMATPAHPTLLILLWTWPFNTPVALPRCSEMVPGAADCNITADSSVYPQADAVIVHHWDIMYNPSANLPPPTRPQGQRWIWFSMESPSNCRHLEALDGYFNLTMSYRSDSDIFTPYGWLEPWSGQPAHPPLNLSAKTELVAWAVSNWKPDSARVRYYQSLQAHLKVDVYGRSHKPLPKGTMMETLSRYKFYLAFENSLHPDYITEKLWRNALEAWAVPVVLGPSRSNYERFLPPDAFIHVDDFQSPKDLARYLQELDKDHARYLSYFHWRETLRPRSFSWALAFCKACWKLQQESRYQTVRSIAAWFT
B3: Fuc-TVII: known human α1,3-fucosyltransferase, previously cloned, expressed in Namalwa cells (protein, UniProt Q11130 1-342, looked up)
Alpha-(1,3)-fucosyltransferase …: MNNAGHGPTRRLRGLGVLAGVALLAALWLLWLLGSAPRGTPAPQPTITILVWHWPFTDQPPELPSDTCTRYGIARCHLSANRSLLASADAVVFHHRELQTRRSHLPLAQRPRGQPWVWASMESPSHTHGLSHLRGIFNWVLSYRRDSDIFVPYGRLEPHWGPSPPLPAKSRVAAWVVSNFQERQLRARLYRQLAPHLRVDVFGRANGRPLCASCLVPTVAQYRFYLSFENSQHRDYITEKFWRNALVAGTVPVVLGPPRATYEAFVPADAFVHVDDFGSARELAAFLTGMNESRYQRFFAWRDRLRVRLFTDWRERFCAICDRYPHLPRSQVYEDLEGWFQA
B4: Human Fuc-TIII: known human α1,3-fucosyltransferase, previously cloned, used for comparison (protein, UniProt P21217 1-361, looked up)
3-galactosyl-N-acetylglucosami …: MDPLGAAKPQWPWRRCLAALLFQLLVAVCFFSYLRVSRDDATGSPRAPSGSSRQDTTPTRPTLLILLRTWPFHIPVALSRCSEMVPGTADCHITADRKVYPQADMVIVHHWDIMSNPKSRLPPSPRPQGQRWIWFNLEPPPNCQHLEALDRYFNLTMSYRSDSDIFTPYGWLEPWSGQPAHPPLNLSAKTELVAWAVSNWKPDSARVRYYQSLQAHLKVDVYGRSHKPLPKGTMMETLSRYKFYLAFENSLHPDYITEKLWRNALEAWAVPVVLGPSRSNYERFLPPDAFIHVDDFQSPKDLARYLQELDKDHARYLSYFRWRETLRPRSFSWALDFCKACWKLQQESRYQTVRSIAAWFT
B5: Human Fuc-TVI: known human α1,3-fucosyltransferase, previously cloned, used for comparison (protein, UniProt P51993 1-359, looked up)
4-galactosyl-N-acetylglucosami …: MDPLGPAKPQWSWRCCLTTLLFQLLMAVCFFSYLRVSQDDPTVYPNGSRFPDSTGTPAHSIPLILLWTWPFNKPIALPRCSEMVPGTADCNITADRKVYPQADAVIVHHREVMYNPSAQLPRSPRRQGQRWIWFSMESPSHCWQLKAMDGYFNLTMSYRSDSDIFTPYGWLEPWSGQPAHPPLNLSAKTELVAWAVSNWGPNSARVRYYQSLQAHLKVDVYGRSHKPLPQGTMMETLSRYKFYLAFENSLHPDYITEKLWRNALEAWAVPVVLGPSRSNYERFLPPDAFIHVDDFQSPKDLARYLQELDKDHARYLSYFRWRETLRPRSFSWALAFCKACWKLQEESRYQTRGIAAWFT

Experiments:
[1] = In vitro α1,3-fucosyltransferase activity, COS-1 cell lysate, pyridylaminated substrate, HPLC; format: biochemical; details: activity of human Fuc-TVI for α2,3-sialylLNnT taken as 100; 25 μM substrate, 2 hours at 37° C.; normalized to transcript amount
Protocol: Each α1,3-fucosyltransferase expression plasmid (15 μg) was introduced into 1×10^7 COS-1 cells.
This introduction was performed by electroporation method using a gene pulser (manufactured by Bio-Rad) according to the Bio-Rad's instructional manual attached thereto. At this time, 1 μg of a luciferase expression vector, which was constructed by inserting β-actin promoter into a Hind III site of a vector pSVOA/L [Experimental Medicine, 7, 96, (1989)] was co-introduced as an index of gene transfer efficiency.
After the gene introduction, COS-1 cells were dispensed into three dishes for cell culture with a diameter of 15 cm and then cultured for 48 hours.
The cells in the remaining two dishes were collected, suspended in a solution (20 mM HEPES (pH 7.4), 2% TrironX-100), then ultrasonicated for a short time period, thereby preparing cell lysate. The protein concentration of the cell lysate was measured using a micro BCA protein assay reagent kit (manufactured by PIERCE).
The enzymatic activities of luciferase and α1,3-fucosyltransferase were measured using the cell lysate. […]
Each of the substrates was allowed to react in assay solution with or without GDP-Fuc (sugar donator), then analyzed with HPLC. […]
The products were detected using a fluorescent spectrum photometer FP-920 (JASCO Corporation) at excitation wavelength of 320 nm and emission wavelength of 400 nm. […]

[2] = Enzyme activity for a poly-N-acetyllactosamine sugar chain, Namalwa cell extract, HPLC; format: biochemical; details: substrate S; for Production (%) P1 / Production (%) P2 / Production (%) P3: relative value, total of products P1, P2 and P3 by each enzyme = 100%
Excerpt: Using a poly-N-acetyllactosamine sugar chain, it was examined that to which GlcNAc in the sugar chains, human Fuc-TIX and 5 types of human α1,3-fucosyltransferase (Fuc-TIII, Fuc-TIV, Fuc-TV, Fuc-TVI, and Fuc-TVII) that had been cloned so far transferred fucose.
Control plasmid (pAMo) and the human Fuc-TIX expression plasmid pAMo-FT9 were introduced into Namalwa cells according to the method shown in Example 1 (3), thereby obtaining stable transformants.
Namalwa cells expressing each of the other 5 types of human α1,3-fucosyltransferases (Fuc-TIII, Fuc-TIV, Fuc-TV, Fuc-TVI, and Fuc-TVII) were obtained according to the previous report (Glycoconjugate J., 13, 802-812, Biochem. Biophys. Res. Commun., 237, 131-137, 1997).
The resultant transformants (about 1×10^7) were collected in microtubes (1.5 ml, manufactured by Eppendolf), followed by centrifugation at 550×g for 7 minutes to collect the cells.
The collected cells were washed with 0.9 ml of PBS. The washed cells were suspended in 100 μl of a solution which consisted of 20 mM HEPES (pH 7.2) and 1% TrironX-100, then allowed to stand at 4° C. for 10 minutes. Subsequently the cells were disrupted using a ultrasonicator (Bioruptor; manufactured by COSMO BIO CO., LTD.)
After disruption of the cells, each supernatant was obtained by centrifugation at 550×g for 7 minutes and used as an enzyme sample. A poly-N-acetyllactosamine sugar chain (Galβ1-4GlcNAcβ1-3Galβ1-4GlcNAcβ1-3Galβ1-4GlcNAc) consisting of 6 sugars was fluorescently labeled with 2-aminobenzamide to make a sugar chain (Galβ1-4GlcNAcβ1-3Galβ1-4GlcNAcβ1-3Galβ1-4GlcNAc-2AB: abbreviated as S in FIGS. 13 and 15, and table 3), which was used as a substrate
Florescent labeling was performed using a Signal™ 2-AB glycan labeling kit (manufactured by Oxford GlycoScience). A poly-N-acetyllactosamine sugar chain (Galβ1-4GlcNAcβ1-3Galβ1-4GlcNAcβ1-3Galβ1-4GlcNAc) was prepared according to WO98/03524.
Samples were allowed to react in 20 μl of an assay solution [50 mM cacodylate (pH 6.8), 5 mM ATP, 10 mM L-fucose, 75 μM […] (manufactured by SIGMA), 25 mM MnCl2, 15 μM fluorescently labeled sugar chain substrate, 6 μl of the cell lysate above] at 37° C. for 2 hours, followed by treatment at 100° C. for 3 minutes to stop the reaction. Next 200 μl of water was added to the samples, and the supernatant was obtained by centrifugation at 10,000×g for 5 minutes. Using an aliquot of the supernatant (10 μl), products were analyzed by HPLC under the following conditions.
HPLC: • Column—TSK-gel ODS-80TsQA column (4.6×250 mm; TOSOH CORPORATION) • Eluate—0.02 M ammonium acetate (pH 4.0) containing 7% methanol • Elution temperature—50° C. • Flow rate—1.0 ml/min. • Detection—Fluorescence spectrum photometer FB-920 (manufactured by JASCO Corporation) (excitation wavelength: 330 nm, radiation wavelength: 420 nm)

Molecule	Relative activity of α1,3-fucosyltransferases for substrate LNT [1]	Production (%) P1 [2] [%]	Production (%) P2 [2] [%]	Production (%) P3 [2] [%]	major product ([2]; extract of Namalwa cells expressing the enzyme)
B1	0				
B2		7.5	92.5	0.0	
B3		0.0	0.0	0.0	no product
B4		2.0	98.0	0.0	
B5		8.3	88.7	3.0	
